The results in this text go back to patent US20020160955A1 (published 2002).

Assay in all cases: competitive phage ELISA
In test [1] the target is T1, IGF-I E58A (G1S-A70V background) displayed on phage (human; bacteriophage M13).
T1 construct: monovalent M13 phage display; not shown: M13 gene III protein fragment (residues 249-406), the phage display carrier, and its junction to IGF-I
T1 chain: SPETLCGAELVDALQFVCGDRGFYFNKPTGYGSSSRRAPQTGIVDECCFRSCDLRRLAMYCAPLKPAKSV
The method, then: (§1) Phage particles were harvested and resuspended in PBS buffer as described in Lowman, H. B., “Phage Display of Peptide Libraries on Protein Scaffolds,” in Cabilly, S. (ed.), Combinatorial Peptide Library Protocols (Humana Press Inc.: Totowa, N.J., 1998), pp. 249-264. Then phage concentrations were normalized to yield a maximal ELISA signal of 0.2-0.4 for each mutant (Lowman, in Cabilly, S. (ed.), supra). Threefold serial dilutions of soluble competitor were prepared on non-absorbent microtiter plates (Nunc, F, 96 wells) with binding buffer (0.5% TWEEN™ 20/PBS) containing phage at the previously-determined concentrations. […] After blocking, the plates containing immobilized target were washed with 0.05% TWEEN™/PBS buffer and subsequently incubated with 80 μl/well of the premixed phage-competitor solutions for 1 hour at room temperature. After washing, bound phage was detected with 80 μl/well of a solution containing a primary rabbit anti-phage polyclonal antibody and a secondary goat anti-rabbit monoclonal antibody-horseradish peroxidase conjugate in 0.5% TWEEN 20™/PBS. o-Phenylenediamine (Sigma) and tetramethylbenzidine (Kirkegaard and Perry) were used as chromogenic substrates, resulting in product detection at 492 and 450 nm, respectively. IC₅₀ values were determined by fitting the binding data to a generic saturation curve (Lowman, in Cabilly, S. (ed.), supra). […] Numbers in Table I represent mean +standard deviation of individually assessed IC₅₀ values.
(§2) At least two different clones of every mutant were tested.

The target of test [2] is T2, IGF-I L10A (G1S-A70V background) displayed on phage (human; bacteriophage M13).
T2 construct: monovalent M13 phage display
T2 chain: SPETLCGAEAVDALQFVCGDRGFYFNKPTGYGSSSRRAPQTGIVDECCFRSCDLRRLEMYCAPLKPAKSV
Here is the method:
as §1, §2

Test [3] deals with T3, IGF-I Y24A (G1S-A70V background) displayed on phage (human; bacteriophage M13, not fully specified; Displayed monovalently on M13 phage as a C-terminal fusion to the gene III fragment, which is left out of the letters.).
T3 construct: monovalent M13 phage display; not shown: Display carrier: M13 gene III fragment (residues 249-406) and its junction
T3 chain: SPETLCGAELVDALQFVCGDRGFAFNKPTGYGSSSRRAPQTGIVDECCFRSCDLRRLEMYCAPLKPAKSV
Here is the method:
as §1, §2

Test [4] has as its target T4, IGF-I L14A (G1S-A70V background) displayed on phage (human; bacteriophage M13).
T4 construct: monovalent M13 phage display
T4 chain: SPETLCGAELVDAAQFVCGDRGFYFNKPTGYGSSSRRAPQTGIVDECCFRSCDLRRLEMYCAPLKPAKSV
Here is the method: as §1, §2

The target in test [5] is T5, IGF-I P28A (G1S-A70V background) displayed on phage (human; bacteriophage M13).
T5 construct: monovalent M13 phage display; not shown: M13 gene III fragment (residues 249-406, display partner) and the junction to it
T5 chain: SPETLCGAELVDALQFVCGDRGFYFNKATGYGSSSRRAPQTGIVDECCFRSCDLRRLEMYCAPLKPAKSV
Here is the method:
as §1, §2

Test [6] has as its target T6, IGF-I I43A (G1S-A70V background) displayed on phage (human; bacteriophage M13).
T6 construct: monovalent M13 phage display
T6 chain: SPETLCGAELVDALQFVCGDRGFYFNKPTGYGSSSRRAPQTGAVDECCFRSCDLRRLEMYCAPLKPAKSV
Here is the method:
as §1, §2

Test [7] has as its target T7, IGF-I G1S-A70V displayed on phage (human; bacteriophage M13).
T7 construct: monovalent M13 phage display; template of the alanine scan; also called G1S-A70V IGF-I; wild-type-like IGF-I variant; not shown: M13 gene III fragment (residues 249-406, display partner) and the junction to it
The method, then:
as §1, §2

In test [8] the target is T8, IGF-I F25A (G1S-A70V background) displayed on phage (human; bacteriophage M13, not fully specified; Displayed monovalently on M13 phage as a C-terminal fusion to the gene III fragment, which is left out of the letters.).
T8 construct: monovalent M13 phage display; not shown: Display carrier: M13 gene III fragment (residues 249-406) and its junction
T8 chain: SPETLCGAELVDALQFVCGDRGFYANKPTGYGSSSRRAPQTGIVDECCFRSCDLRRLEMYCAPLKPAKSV
The method, then:
as §1, §2

The target in test [9] is T9, IGF-I S34A (G1S-A70V background) displayed on phage (human; bacteriophage M13).
T9 construct: monovalent M13 phage display; not shown: M13 gene III fragment (residues 249-406, display partner) and the junction to it
T9 chain: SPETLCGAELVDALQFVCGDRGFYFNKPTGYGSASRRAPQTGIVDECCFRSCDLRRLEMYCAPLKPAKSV
Here is the method:
as §1, §2

The target of test [10] is T10, IGF-I G32A (G1S-A70V background) displayed on phage (human; bacteriophage M13).
T10 construct: monovalent M13 phage display; not shown: M13 gene III fragment (residues 249-406, display partner) and the junction to it
T10 chain: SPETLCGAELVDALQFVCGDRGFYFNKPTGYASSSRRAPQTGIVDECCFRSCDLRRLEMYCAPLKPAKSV
The method, then:
as §1, §2

Test [11] concerns the target T11, IGF-I S51A (G1S-A70V background) displayed on phage (human; bacteriophage M13).
T11 construct: monovalent M13 phage display
T11 chain: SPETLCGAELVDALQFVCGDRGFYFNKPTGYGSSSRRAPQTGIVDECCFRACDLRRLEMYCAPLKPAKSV
The method, then:
as §1, §2

Test [12] deals with T12, IGF-I F16A (G1S-A70V background) displayed on phage (human; bacteriophage M13).
T12 construct: monovalent M13 phage display
T12 chain: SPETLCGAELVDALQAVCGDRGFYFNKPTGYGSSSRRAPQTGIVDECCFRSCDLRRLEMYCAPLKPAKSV
Here is the method: as §1, §2

Test [13] has as its target T13, IGF-I Q40A (G1S-A70V background) displayed on phage (human; bacteriophage M13).
T13 construct: monovalent M13 phage display
T13 chain: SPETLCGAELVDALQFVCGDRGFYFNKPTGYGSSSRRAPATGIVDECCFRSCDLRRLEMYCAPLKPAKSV
Here is the method: as §1, §2

The target in test [14] is T14, IGF-I G30A (G1S-A70V background) displayed on phage (human; bacteriophage M13).
T14 construct: monovalent M13 phage display; not shown: M13 gene III fragment (residues 249-406, display partner) and the junction to it
T14 chain: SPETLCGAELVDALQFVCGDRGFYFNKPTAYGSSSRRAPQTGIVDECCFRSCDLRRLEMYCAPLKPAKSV
The method, then: as §1, §2

B1: human IGFBP-1 (other, UniProt P08833 26-259, looked up)
chain: APWQCAPCSAEKLALCPPVSASCSEVTRSAGCGCCPMCALPLGAACGVATARCARGLSCRALPGEQQPLHALTRGQGACVQESDASAPHAAEAGSPESPESTEITEEELLDNFHLMAPSEEDHSILWDAISTYDGSKALHVTNIKKWKEPCRIELYRVVESLAKAQETSGEEISKFYLPNCNKNGFYHSRQCETSMDGEAGLCWCVYPWNGKRIPGSPEIRGDPNCQIYFNVQN
notes: secreted recombinant protein purified from conditioned medium
Consider B1, for which the IC50 in test [1] was 11.9 nM; in test [2], 311 nM; in test [3] it was 13.3 nM; in test [4], 36.7 nM; in test [5] it was 9.3 nM; in test [6], 31.3 nM. Besides, the IC50 was found to be 8.2 nM in [7]; 181 nM in [8]; 9.5 nM in [9]; 10.9 nM in test [10]; 13.4 nM in test [11]; 57.8 nM in test [12]. Besides, the results for the IC50 in [13] and in [14] were 10.2 nM and 7.1 nM, respectively.
